Assay results from paper PMC3406708.

Target: integrin α2β1 on human platelets (human (endogenous in platelets)) (UniProt P17301)
Test: flow cytometry on cells

Chain of UniProt P17301 (P17301 30-1181, chain 1 of 2): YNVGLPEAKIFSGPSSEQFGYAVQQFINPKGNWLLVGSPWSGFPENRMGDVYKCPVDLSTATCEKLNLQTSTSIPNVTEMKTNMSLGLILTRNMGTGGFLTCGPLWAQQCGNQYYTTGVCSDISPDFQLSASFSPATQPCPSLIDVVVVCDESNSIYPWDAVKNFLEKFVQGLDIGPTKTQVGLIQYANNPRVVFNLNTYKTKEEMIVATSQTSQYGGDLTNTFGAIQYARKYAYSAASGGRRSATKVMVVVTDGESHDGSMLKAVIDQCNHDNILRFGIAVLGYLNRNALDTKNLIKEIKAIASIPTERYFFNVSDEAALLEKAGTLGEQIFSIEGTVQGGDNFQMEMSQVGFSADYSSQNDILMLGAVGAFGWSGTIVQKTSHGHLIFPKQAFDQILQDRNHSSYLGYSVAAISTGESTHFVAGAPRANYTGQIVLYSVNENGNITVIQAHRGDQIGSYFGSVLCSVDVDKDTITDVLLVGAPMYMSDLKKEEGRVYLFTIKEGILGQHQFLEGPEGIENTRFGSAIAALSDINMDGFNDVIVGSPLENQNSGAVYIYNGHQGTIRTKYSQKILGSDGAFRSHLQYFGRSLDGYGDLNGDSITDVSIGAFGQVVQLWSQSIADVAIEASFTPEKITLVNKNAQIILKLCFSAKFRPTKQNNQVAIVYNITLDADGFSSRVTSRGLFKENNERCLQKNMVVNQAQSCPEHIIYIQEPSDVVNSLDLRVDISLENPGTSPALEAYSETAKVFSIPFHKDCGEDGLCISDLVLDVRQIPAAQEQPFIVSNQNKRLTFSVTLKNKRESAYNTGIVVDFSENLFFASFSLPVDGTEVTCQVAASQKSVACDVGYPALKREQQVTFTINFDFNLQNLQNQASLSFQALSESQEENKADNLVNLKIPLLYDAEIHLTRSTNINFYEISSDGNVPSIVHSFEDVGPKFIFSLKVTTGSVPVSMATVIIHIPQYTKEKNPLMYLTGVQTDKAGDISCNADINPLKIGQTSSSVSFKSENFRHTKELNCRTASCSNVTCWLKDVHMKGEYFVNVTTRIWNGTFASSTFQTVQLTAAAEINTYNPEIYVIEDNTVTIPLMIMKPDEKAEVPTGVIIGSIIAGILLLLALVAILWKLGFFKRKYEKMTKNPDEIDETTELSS
Chain of UniProt P17301 (P05556 21-798, chain 2 of 2, further chain): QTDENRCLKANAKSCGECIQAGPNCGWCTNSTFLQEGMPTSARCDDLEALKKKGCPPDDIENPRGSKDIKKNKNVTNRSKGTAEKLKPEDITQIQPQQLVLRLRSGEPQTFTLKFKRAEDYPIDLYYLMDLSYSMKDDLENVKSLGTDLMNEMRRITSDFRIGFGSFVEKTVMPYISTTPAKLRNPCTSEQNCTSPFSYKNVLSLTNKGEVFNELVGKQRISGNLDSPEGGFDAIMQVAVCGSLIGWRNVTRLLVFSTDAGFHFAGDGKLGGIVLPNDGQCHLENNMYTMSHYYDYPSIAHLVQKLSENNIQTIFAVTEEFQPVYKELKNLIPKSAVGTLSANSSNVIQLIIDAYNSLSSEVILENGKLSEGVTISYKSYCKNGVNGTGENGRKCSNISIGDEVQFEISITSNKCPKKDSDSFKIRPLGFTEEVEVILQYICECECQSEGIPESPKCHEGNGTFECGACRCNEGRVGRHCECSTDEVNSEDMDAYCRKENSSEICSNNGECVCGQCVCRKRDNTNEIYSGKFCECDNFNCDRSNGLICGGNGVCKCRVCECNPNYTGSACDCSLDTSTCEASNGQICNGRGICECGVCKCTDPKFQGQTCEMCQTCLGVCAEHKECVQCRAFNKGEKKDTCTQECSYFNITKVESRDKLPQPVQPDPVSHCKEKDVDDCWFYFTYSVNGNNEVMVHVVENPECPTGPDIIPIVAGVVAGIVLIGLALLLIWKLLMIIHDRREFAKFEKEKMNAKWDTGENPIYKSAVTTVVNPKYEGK

Substance: Rhinocetin (heterodimeric snaclec from the venom of Bitis gabonica rhinoceros) (complex)
- percent inhibition of 6F1 antibody binding at 50 μg/ml: 65%
- percent inhibition of 6F1 antibody binding at 100 μg/ml: 90%
